Measured values taken from the supplement of paper PMC10567573.

B1: SOAT1 (parent)
chain: GVLILFLTFFAFLHCWLNAFAEML

Variants of: B1
Test: protein stability index of a GFP-peptide fusion (GPS, HEK-293T) (PSI 1-6); higher = more stable
Conditions: c terminus: a fixed tail appended
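Also: lentivirally expressed fusions sorted by FACS into six bins by GFP to DsRed ratio, PSI derived from sequencing read proportions per bin multiplied by bin number.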

Protein stability index: each site, then its substitutions
L5: Y 3.59
F9: A 1.36, Y 2.83, I 1.34, M 3.56, N 2.46, V 3.43, T 2.68, W 3.04, H 4.54, S 1.94, Q 2.33, G 4.01, E 3.8, C 3.31, D 3.34, P 3.94, K 3.13
E22: P 3.59, W 3.25, H 3.56, F 3.34, D 2.19, Y 2.22, N 2.79, K 2.31, S 3.37, R 1.7, L 2.92, A 1.99, G 2.16, Q 2.63, C 2.74, V 3.24, T 2.47, I 2.95, M 3.66
F10: M 1.67, V 2.75, H 2.17, N 3.82, T 3.52, R 3.84, S 2.2, I 2.54, Q 4.33, E 2.27, C 2.63, L 2.24, K 2.35, Y 3.58, A 3.62
C15: N 3.02, D 1.44, R 1.95, Q 3.3, K 3.47, V 2, M 3.37, S 1.83, Y 2.79, L 2.97, T 2.47, H 1.99, G 2.01, W 3.12, E 2.28, F 2.27, I 2.55, A 2.75, P 2.81
W16: V 3.12, I 2.96, Y 2.31, D 2.4, G 3.64, M 3.65, C 2.68, T 3.45, A 2, L 3.2, E 3.24, P 2.19, F 3.85, K 2.19, H 3.94, Q 2.55, N 2.59, S 3.04
M23: I 2.85, Q 2.73, H 2.55, K 2.91, R 2.77, A 2.44, S 3.71, C 3.08, V 2.08, P 3.44, F 2.67, D 2.29, N 2.68, E 1.75, L 2.88, G 2.18, Y 2.54, T 2.98, W 2.61
L17: N 2.84, Y 3.42, S 1.44, Q 2.24, I 2.26, P 2.22, G 2.06, R 3.44, K 3.15, C 2.63, M 2.95, F 2.8, H 1.87, E 3.02, T 2.88, D 2.9, V 3.02, W 2.44, A 2.74
L13: F 2.74, V 2.57, A 4.05, H 2.45, D 3.39, I 2.17, P 2.6, C 2.83, N 3.07, K 3.57, Q 4.15, G 2.86, W 3.93, Y 2.48, S 3.65, E 3.16, R 2.96, T 3.62
A19: G 3.14, S 2.83, K 2.96, V 2.77, I 2.76, H 3.33, Q 2.59, T 2.82, E 3.48, R 1.64, N 2.8, F 1.68, Y 2.29, L 3.05, W 1.73, M 3.03, P 2.31, D 2.85, C 2.73
N18: T 3, M 2.78, Q 2.81, C 1.59, P 3.85, H 2.92, G 2.52, L 3.64, K 2.48, W 2.94, Y 2.61, I 2.85, F 3.51, D 1.71, V 2.45, E 3.51, S 2.51, R 2.55
H14: R 2.68, G 2.45, E 2.94, T 2.06, C 2.17, I 1.95, A 2.22, V 1.48, L 1.87, F 1.52, W 2.17, K 2.17, M 2.07, Q 2.47, Y 2.09, P 2.06, S 2.02, D 3.15
L24: V 2.75, Q 3.14, M 2.72, R 2.33, E 3.41, Y 2.88, G 3.4, I 2.63, T 3.04, C 3.67, D 1.75, F 2.23, W 2.06, K 3.06, P 2.68, A 2.69, S 3.29, N 2.98
A21: Q 3.1, Y 1.84, K 2.01, L 1.4, H 2.98, F 3.12, T 2.29, I 2.93, R 2.11, M 3.62, E 1.83, G 2.77, N 2.76, S 1.84, D 2.14, P 2.29, C 2.48, V 2.73
F12: E 3.48, V 1.84, K 3.54, A 2.65, H 2.43, T 2.42, N 3, C 3.26, S 3.35, M 2.87, L 2.09, G 2.81, Q 2.71, W 2.92, Y 2.75, D 2.27, I 2.6, R 2.64
A11: H 2.31, L 1.75, F 2.48, I 3.38, V 1.88, W 1.64, Y 2.09, M 3.5, P 3.29, C 1.84, T 3.07, Q 2.55, G 1.15, D 2.82, R 3.9, S 2.69, K 2.37
F20: C 2.33, A 3.08, I 2.67, K 2.71, R 2.89, G 2.22, H 3.21, L 2.56, W 3.57, D 3.92, M 2.85, P 2.93, N 2.01, T 1.98, V 3.21, S 2.94, Y 2.9, E 2.67
T8: F 3.81, L 2.04, W 1.47, Q 1.69, N 2.38, C 1.01, H 3.09, M 2.6, Y 3.57, S 3.41, D 2.71, A 3.88, E 2.8, G 2.61, I 2.42, P 3.34, V 2.33
L7: P 2.68, V 2.56, C 1.91, W 4.58, E 3.09, G 2.95, A 3.84, Q 2.92, R 3.36, N 3.81, F 1.85, K 3.37, M 2.38, D 2.11, I 2.4
F6: H 2.63, R 3.83, G 1.72, Y 3.06, T 2.02, V 3.25, D 1.78, I 2.63, M 1.35, S 2.73, A 3.95, P 2.63, Q 3.85
